The labels stand for the following.
B1: CBL peptide 538-553 (E3 ubiquitin-protein ligase CBL), 16-mer library wild type / YES SH3 (YES1 SH3 domain, residues 90-152) (parent complex)
chain 1: TLRDLPPPPPPDRPYS
chain 2: not shown

In this test the parent is B1. The test is described as follows: proteomic peptide phage display deep mutational scan (ProP-PD DMS): M13 P8 16-mer library selected against immobilised GST-tagged bait for four days (rounds), NGS of the eluted pools per day and pseudo-replica; bait immobilised on MaxiSorp plates (10 µg), library pre-cleared on GST, 2 h binding at 4 °C, five washes; one round per day, days 1-4; value from days 2 and 3.
chain 1 S16I: the screen value is 0.00716 average fractional NGS count over selection days 2 and 3 (reads of this peptide / all reads for the bait, averaged over ….

With chain 1 S16M, the screen value was 0.00227 average fractional NGS count over selection days 2 and 3 (reads of this peptide / all reads for the bait, averaged over ….

With chain 1 S16Q, the screen value was 9.78e-05 average fractional NGS count over selection days 2 and 3 (reads of this peptide / all reads for the bait, averaged over ….

chain 1 S16H: the screen value was 0.00402 average fractional NGS count over selection days 2 and 3 (reads of this peptide / all reads for the bait, averaged over ….

As for chain 1 S16P, the screen value was 0.00387 average fractional NGS count over selection days 2 and 3 (reads of this peptide / all reads for the bait, averaged over ….

Regarding chain 1 S16Y, the screen value was 0.000405 average fractional NGS count over selection days 2 and 3 (reads of this peptide / all reads for the bait, averaged over ….

chain 1 S16R: the screen value is 0.000301 average fractional NGS count over selection days 2 and 3 (reads of this peptide / all reads for the bait, averaged over ….

Consider chain 1 S16F, for which the screen value was 0.00399 average fractional NGS count over selection days 2 and 3 (reads of this peptide / all reads for the bait, averaged over ….

For chain 1 S16G, the screen value is 0.000561 average fractional NGS count over selection days 2 and 3 (reads of this peptide / all reads for the bait, averaged over ….

As to chain 1 S16D, the screen value was 0.00258 average fractional NGS count over selection days 2 and 3 (reads of this peptide / all reads for the bait, averaged over ….

Consider chain 1 S16L, for which the screen value was 0.000883 average fractional NGS count over selection days 2 and 3 (reads of this peptide / all reads for the bait, averaged over ….

Turning to chain 1 S16K, the screen value is 0.00025 average fractional NGS count over selection days 2 and 3 (reads of this peptide / all reads for the bait, averaged over ….

As to chain 1 S16A, the screen value is 0.00886 average fractional NGS count over selection days 2 and 3 (reads of this peptide / all reads for the bait, averaged over ….

For the variant chain 1 Y15W, the screen value is 0.000273 average fractional NGS count over selection days 2 and 3 (reads of this peptide / all reads for the bait, averaged over ….

Take chain 1 Y15Q: the screen value was 0.000766 average fractional NGS count over selection days 2 and 3 (reads of this peptide / all reads for the bait, averaged over ….

For the variant chain 1 Y15R, the screen value was 0.000143 average fractional NGS count over selection days 2 and 3 (reads of this peptide / all reads for the bait, averaged over ….

With chain 1 Y15V, the screen value is 0.00865 average fractional NGS count over selection days 2 and 3 (reads of this peptide / all reads for the bait, averaged over ….

Turning to chain 1 Y15I, the screen value was 0.000521 average fractional NGS count over selection days 2 and 3 (reads of this peptide / all reads for the bait, averaged over ….

Take chain 1 Y15N: the screen value was 7.8e-05 average fractional NGS count over selection days 2 and 3 (reads of this peptide / all reads for the bait, averaged over ….

For the variant chain 1 Y15F, the screen value was 0.00101 average fractional NGS count over selection days 2 and 3 (reads of this peptide / all reads for the bait, averaged over ….

Take chain 1 Y15M: the screen value is 0.000526 average fractional NGS count over selection days 2 and 3 (reads of this peptide / all reads for the bait, averaged over ….

With chain 1 Y15L, the screen value was 0.00132 average fractional NGS count over selection days 2 and 3 (reads of this peptide / all reads for the bait, averaged over ….

For chain 1 P6H, the screen value was 0.000126 average fractional NGS count over selection days 2 and 3 (reads of this peptide / all reads for the bait, averaged over ….

With chain 1 P6S, the screen value is 0.000101 average fractional NGS count over selection days 2 and 3 (reads of this peptide / all reads for the bait, averaged over ….

As for chain 1 D12T, the screen value is 0.00128 average fractional NGS count over selection days 2 and 3 (reads of this peptide / all reads for the bait, averaged over ….

In the case of chain 1 D12P, the screen value is 0.00103 average fractional NGS count over selection days 2 and 3 (reads of this peptide / all reads for the bait, averaged over ….

Take chain 1 D12M: the screen value was 0.00124 average fractional NGS count over selection days 2 and 3 (reads of this peptide / all reads for the bait, averaged over ….

In the case of chain 1 D12H, the screen value was 0.00265 average fractional NGS count over selection days 2 and 3 (reads of this peptide / all reads for the bait, averaged over ….

On to chain 1 D12V, for which the screen value is 0.00115 average fractional NGS count over selection days 2 and 3 (reads of this peptide / all reads for the bait, averaged over ….

Turning to chain 1 D12N, the screen value was 0.000102 average fractional NGS count over selection days 2 and 3 (reads of this peptide / all reads for the bait, averaged over ….

Consider chain 1 D12K, for which the screen value is 0.00012 average fractional NGS count over selection days 2 and 3 (reads of this peptide / all reads for the bait, averaged over ….

Consider chain 1 D12L, for which the screen value was 0.00406 average fractional NGS count over selection days 2 and 3 (reads of this peptide / all reads for the bait, averaged over ….

Turning to chain 1 D12Q, the screen value was 0.00108 average fractional NGS count over selection days 2 and 3 (reads of this peptide / all reads for the bait, averaged over ….

For chain 1 P8I, the screen value was 0.000407 average fractional NGS count over selection days 2 and 3 (reads of this peptide / all reads for the bait, averaged over ….

Regarding chain 1 P8T, the screen value is 0.000116 average fractional NGS count over selection days 2 and 3 (reads of this peptide / all reads for the bait, averaged over ….

For chain 1 P8F, the screen value was 5.53e-05 average fractional NGS count over selection days 2 and 3 (reads of this peptide / all reads for the bait, averaged over ….

On to chain 1 P8E, for which the screen value is 0.0001 average fractional NGS count over selection days 2 and 3 (reads of this peptide / all reads for the bait, averaged over ….

chain 1 P8Y: the screen value was 0.00011 average fractional NGS count over selection days 2 and 3 (reads of this peptide / all reads for the bait, averaged over ….

On to chain 1 P8V, for which the screen value is 0.0024 average fractional NGS count over selection days 2 and 3 (reads of this peptide / all reads for the bait, averaged over ….

Consider chain 1 P8M, for which the screen value was 0.000558 average fractional NGS count over selection days 2 and 3 (reads of this peptide / all reads for the bait, averaged over ….

Take chain 1 D4K: the screen value is 0.000375 average fractional NGS count over selection days 2 and 3 (reads of this peptide / all reads for the bait, averaged over ….

For the variant chain 1 D4S, the screen value is 7.92e-05 average fractional NGS count over selection days 2 and 3 (reads of this peptide / all reads for the bait, averaged over ….

For the variant chain 1 D4A, the screen value is 0.000274 average fractional NGS count over selection days 2 and 3 (reads of this peptide / all reads for the bait, averaged over ….

As for chain 1 D4P, the screen value was 0.00043 average fractional NGS count over selection days 2 and 3 (reads of this peptide / all reads for the bait, averaged over ….

For chain 1 D4M, the screen value is 0.0013 average fractional NGS count over selection days 2 and 3 (reads of this peptide / all reads for the bait, averaged over ….

Take chain 1 D4Y: the screen value was 0.00195 average fractional NGS count over selection days 2 and 3 (reads of this peptide / all reads for the bait, averaged over ….

Turning to chain 1 D4H, the screen value was 0.000257 average fractional NGS count over selection days 2 and 3 (reads of this peptide / all reads for the bait, averaged over ….

For the variant chain 1 D4I, the screen value is 0.00256 average fractional NGS count over selection days 2 and 3 (reads of this peptide / all reads for the bait, averaged over ….

Turning to chain 1 D4F, the screen value is 5.77e-05 average fractional NGS count over selection days 2 and 3 (reads of this peptide / all reads for the bait, averaged over ….

On to chain 1 D4T, for which the screen value is 0.00181 average fractional NGS count over selection days 2 and 3 (reads of this peptide / all reads for the bait, averaged over ….

Turning to chain 1 R3K, the screen value is 0.000536 average fractional NGS count over selection days 2 and 3 (reads of this peptide / all reads for the bait, averaged over ….

chain 1 R3W: the screen value was 0.00019 average fractional NGS count over selection days 2 and 3 (reads of this peptide / all reads for the bait, averaged over ….

Consider chain 1 R3D, for which the screen value was 8.49e-05 average fractional NGS count over selection days 2 and 3 (reads of this peptide / all reads for the bait, averaged over ….

Consider chain 1 R3G, for which the screen value was 0.00132 average fractional NGS count over selection days 2 and 3 (reads of this peptide / all reads for the bait, averaged over ….

Regarding chain 1 R3I, the screen value is 0.000159 average fractional NGS count over selection days 2 and 3 (reads of this peptide / all reads for the bait, averaged over ….

On to chain 1 R3V, for which the screen value was 0.000502 average fractional NGS count over selection days 2 and 3 (reads of this peptide / all reads for the bait, averaged over ….

Turning to chain 1 R3A, the screen value was 0.00047 average fractional NGS count over selection days 2 and 3 (reads of this peptide / all reads for the bait, averaged over ….

Consider chain 1 R3F, for which the screen value is 0.000372 average fractional NGS count over selection days 2 and 3 (reads of this peptide / all reads for the bait, averaged over ….

For chain 1 R3P, the screen value is 8.03e-05 average fractional NGS count over selection days 2 and 3 (reads of this peptide / all reads for the bait, averaged over ….

chain 1 R3L: the screen value is 7.89e-05 average fractional NGS count over selection days 2 and 3 (reads of this peptide / all reads for the bait, averaged over ….

On to chain 1 R3N, for which the screen value is 0.000239 average fractional NGS count over selection days 2 and 3 (reads of this peptide / all reads for the bait, averaged over ….

Turning to chain 1 R3S, the screen value is 0.000276 average fractional NGS count over selection days 2 and 3 (reads of this peptide / all reads for the bait, averaged over ….

chain 1 R3M: the screen value is 0.000204 average fractional NGS count over selection days 2 and 3 (reads of this peptide / all reads for the bait, averaged over ….

Turning to chain 1 L5I, the screen value was 5.25e-05 average fractional NGS count over selection days 2 and 3 (reads of this peptide / all reads for the bait, averaged over ….

Take chain 1 L5F: the screen value is 6.9e-05 average fractional NGS count over selection days 2 and 3 (reads of this peptide / all reads for the bait, averaged over ….

Turning to chain 1 L5V, the screen value was 6.39e-05 average fractional NGS count over selection days 2 and 3 (reads of this peptide / all reads for the bait, averaged over ….

Regarding chain 1 P14A, the screen value is 0.000568 average fractional NGS count over selection days 2 and 3 (reads of this peptide / all reads for the bait, averaged over ….

As to chain 1 P14Y, the screen value is 0.00118 average fractional NGS count over selection days 2 and 3 (reads of this peptide / all reads for the bait, averaged over ….

With chain 1 P14V, the screen value was 0.0011 average fractional NGS count over selection days 2 and 3 (reads of this peptide / all reads for the bait, averaged over ….

Regarding chain 1 P14H, the screen value was 0.00144 average fractional NGS count over selection days 2 and 3 (reads of this peptide / all reads for the bait, averaged over ….

With chain 1 P14L, the screen value is 0.00213 average fractional NGS count over selection days 2 and 3 (reads of this peptide / all reads for the bait, averaged over ….

Regarding chain 1 P14E, the screen value is 0.000212 average fractional NGS count over selection days 2 and 3 (reads of this peptide / all reads for the bait, averaged over ….

As for chain 1 P14S, the screen value is 0.00038 average fractional NGS count over selection days 2 and 3 (reads of this peptide / all reads for the bait, averaged over ….

In the case of chain 1 P14T, the screen value was 0.0012 average fractional NGS count over selection days 2 and 3 (reads of this peptide / all reads for the bait, averaged over ….

Consider chain 1 P14W, for which the screen value is 0.00023 average fractional NGS count over selection days 2 and 3 (reads of this peptide / all reads for the bait, averaged over ….
